For the series, the system named is MS2 coat protein. Description: apparent KD of MS2 coat protein; designed switch direction (-1 OFF switch, 1 ON switch): -1; higher = weaker reporter binding. The method, boiled down: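 Three titration conditions were used: no input, 200 uM small-molecule ligand, and an oligonucleotide input. In each, SNAP-549-labelled MS2 coat protein was raised from 0.7 or 1.5 nM, doubling, to 3 µM over designed RNA switches transcribed on Illumina chips by stalled E. coli RNA polymerase. Curve fits of normalised cluster fluorescence gave values whose per-design median over clusters is the apparent KD.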

Setting [1] is: Eterna round: R95, input ligand: microRNA oligo, concentration not stated.
Setting [2] is: input ligand: microRNA oligo, concentration not stated.
Where [3] appears, read: Eterna round: R95, input ligand: FMN 200 uM.
Where [4] appears, read: Eterna round: R95, input ligand: none.

As for “GUUAGUUAAGGAUAUACAGGGAGCCGCGGCGUCUCGCCGCAACAUGAGGAUCACCCAUGUAGAAGGUGGCCAUU [JL ViennaUCT Enbibi mod 2] (puzzle: Exclusion 2)”, the “apparent KD of MS2 coat protein” value under setting [1] was found to be 101 nM.

As for “GUUAUGUCAGGAUAUGCUAAUGAUGAGUGAUCAGACAUGAUGUAGAAGGGACAUGAGGAUCACCCAUGUAAUAU [EX4 #8] (Eterna round: R97, puzzle: Exclusion 4)”, the “apparent KD of MS2 coat protein” value was determined as 114 nM (input ligand: FMN 200 uM) and 122 nM (input ligand: none).

On to “GUUAUUAAUGUAGGAUAUGCAAGGCGAACCUAAGCAGAAGGACAUGAGGAUCACCCAUGUAUUGCGGUCUGCGUUCAGAUCGCU [salish99_ExNG1_r4_012] (Eterna round: R96, puzzle: Exclusion NG 1)”, for which the “apparent KD of MS2 coat protein” value turned out to be 39.9 nM (input ligand: FMN 200 uM), 15.8 nM under setting [2] and 19.4 nM (input ligand: none).

Take “GUUCACGUAGGAUAUACGGUUGGUGUGCGCGAAGGCCUUUGACAUGAGGAUCACCCAUGUAGAAGGACGAUGAA [EX2 C.24] (Eterna round: R97, puzzle: Exclusion 2)”: the “apparent KD of MS2 coat protein” value runs as follows: (input ligand: FMN 200 uM) 32.1 nM; (input ligand: none) 31 nM.

Regarding “GUUCCACGAGGAUAUGAGGGCAACUACAUGAGGAUCACCCAUGUGAGCGAUCCUCAGAAGUCAGAAGGCGUGGAGA [Eternabot (L2) Solution 77] (Eterna round: R97, puzzle: Exclusion 5)”, the “apparent KD of MS2 coat protein” value came out at 63.7 nM (input ligand: FMN 200 uM) and 70.4 nM (input ligand: none).

For “GUUGGAUGAGGAUAUCGAGGUUAGUACAUGAGGAUCACCCAUGUUAUCCAGGUGUCGGUUCGAGAAGGCAUUGGAC [LRO-Ex5-14] (Eterna round: R96, puzzle: Exclusion 5)”, the “apparent KD of MS2 coat protein” value amounted to 104 nM (input ligand: FMN 200 uM), 27.8 nM under setting [2] and 34.7 nM (input ligand: none).

Regarding “GUUGGAUGAGGAUAUCGAGGUUAGUACAUGAGGAUCACCCAUGUUAUCCAGGUGUCGGUUCGAGAAGGCAUUGGAC [LRO-Ex5-14] (puzzle: Exclusion 5)”, the “apparent KD of MS2 coat protein” value under setting [1] was found to be 32.9 nM.

Consider “GUUGUCCUUGUAAGGAUAUCCGGAUAGAGCAUAUCGGAGAAGGUACAUGAGGAUCACCCAUGUCUCACCGUGCU [Eternabot (L1) Solution 95] (Eterna round: R97, puzzle: Brourd's mod of Exclusion 4)”, for which the “apparent KD of MS2 coat protein” value turned out to be 14.4 nM (input ligand: FMN 200 uM) and 14.3 nM (input ligand: none).

On to “GUUUAGUGAGGAUAUGUGGCUUCGAUCGUGAGAUCGAGGCUACAGAAGGCACAUGAGGAUCACCCAUGUUCCUA [salish99_ex4_r4_107] (Eterna round: R97, puzzle: Exclusion 4)”, for which the “apparent KD of MS2 coat protein” value reads like this: (input ligand: FMN 200 uM) 87.7 nM; (input ligand: none) 16.5 nM.

Regarding “GUUUCACAUGAGGAUCACCCAUGUGAGGAUAUCAAUUUGUUAACCGUAGUUAAUAGAUUGAGAAGGCGCGUGAU [JRxlusion 2- Jieux - Exclusion 1] (Eterna round: R97, puzzle: Exclusion 1)”, the “apparent KD of MS2 coat protein” value amounted to 64.5 nM (input ligand: FMN 200 uM) and 49 nM (input ligand: none).

Consider “GUUUCACAUGAGGAUCACCCAUGUGAGGAUAUGCAUUUGUUAACCGUAGUUAAUAGAUGCAGAAGGCGCGUGAU [JRxlusion 5 - Jieux - Exclusion 1] (Eterna round: R97, puzzle: Exclusion 1)”, for which the “apparent KD of MS2 coat protein” value worked out at 69.8 nM (input ligand: FMN 200 uM) and 65 nM (input ligand: none).

Consider “GUUUGACAUGAGGAUCACCCAUGUGAGGAUAUACGAUUAGCUGCUAGGUAGUUAGUAUGUAGAAGGUGCGUGUU [EX1 #69] (Eterna round: R97, puzzle: Exclusion 1)”, for which the “apparent KD of MS2 coat protein” value runs as follows: (input ligand: FMN 200 uM) 97.9 nM; (input ligand: none) 117 nM.

With “GUUUUACAUGAGGAUCACCCAUGUGAGGAUAUAUUAUUAAUAGUGAUAAUUAUUGGUGGUAGAAGGCGCGUGAU [JR_Exc1_Sub012] (Eterna round: R97, puzzle: Exclusion 1)”, the “apparent KD of MS2 coat protein” value by setting is: (input ligand: FMN 200 uM) 50.9 nM; (input ligand: none) 53.1 nM.

Take “GUUUUGAGACGGAGAUCCGACAUGAGGAUCACCCAUGUCUCACAAGCUUUUUGCUCGUCUUAUACUCCUCUGUUCUC [Elimod 44 - Jieux - Sensor, turn-off variant 1] (Eterna round: R97, puzzle: Sensor, turn-off variant 1)”: the “apparent KD of MS2 coat protein” value is, setting by setting: (input ligand: FMN 200 uM) 17 nM; (input ligand: none) 17.6 nM.

Take “UAAAACCGGUGAGGAUAUUUUUAAUAGAGCUUUAUGAUAUACAUGAGGAUCACCCAUGUUACGUUAAAGAAGGCAUCGGAAAAU [Mat - Exclusion NG 2 - Mod of JL - D99] (Eterna round: R96, puzzle: Exclusion NG 2)”: the “apparent KD of MS2 coat protein” value (input ligand: FMN 200 uM) was found to be 13.7 nM, the “apparent KD of MS2 coat protein” value under setting [2] was 14.5 nM and the “apparent KD of MS2 coat protein” value (input ligand: none) is 19.9 nM.

For “UAAAAGGUAGGAUAUACGAAAAAAAAGGGUAGAAAAAAAACACAUGAGGAUCACCCAUGUAGAAGGACCAAAAG [salish99_ex2_r3_048] (puzzle: Exclusion 2)”, the “apparent KD of MS2 coat protein” value came to 64.3 nM under setting [3], 29.8 nM under setting [1] and 30.1 nM under setting [4].

Turning to “UAAAAUUUAGGAUAUGCGUGAGAUAGAGUACGAUGAGCUGCACAUGAGGAUCACCCAUGUAGAAGGAAAUUUUA [-11, -8.6 kcal, 36% A] (Eterna round: R97, puzzle: Exclusion 2)”, the “apparent KD of MS2 coat protein” value runs as follows: (input ligand: FMN 200 uM) 58 nM; (input ligand: none) 31.2 nM.

Take “UAAACAAGCUUAAGAUCCUACAUGAGGAUCACCCAUGUGCUCGUCUUAUAAGGUACUGUGACGAAAGUCACGGUACC [JL TOV1 3.06] (Eterna round: R97, puzzle: Sensor, turn-off variant 1)”: the “apparent KD of MS2 coat protein” value by setting is: (input ligand: FMN 200 uM) 226 nM; (input ligand: none) 194 nM.

For the sequence “UAAACAUGGAUAUAACAGUACAUGAGGAUCACCCAUGUUAAUACGAUAGAUUAUAACAAGCUUUUUUGUCGUCUUAA [Cooked Book] (Eterna round: R97, puzzle: Sensor, turn-off variant 1)”, the “apparent KD of MS2 coat protein” value (input ligand: FMN 200 uM) stood at 116 nM and the “apparent KD of MS2 coat protein” value (input ligand: none) turned out to be 85.4 nM.

As for “UAAAGAUAAGGAUAUUGAAGGUUCGACAUGAGGAUCACCCAUGUUAUGUUGGAAAAGGGACAAGAAGGUAUGAAAU [salish99_ex5_r4_207] (Eterna round: R97, puzzle: Exclusion 5)”, the “apparent KD of MS2 coat protein” value (input ligand: FMN 200 uM) stood at 35.9 nM and the “apparent KD of MS2 coat protein” value (input ligand: none) is 37 nM.

With “UAAAGUAUAUAGGAUAUCUAGCUGGUAACAGCUAGAGAAGGAUGUACAUGAGGAUCACCCAUGUAAAUCAUGAA [Ex6/16-A2] (Eterna round: R97, puzzle: Exclusion 6)”, the “apparent KD of MS2 coat protein” value was found to be 20.8 nM (input ligand: FMN 200 uM) and 17.3 nM (input ligand: none).

“UAAAUGUGAGGAUAUCAGGUGUGCUAGCGUACUGGUACAUCUGAGAAGGCACAUGAGGAUCACCCAUGUUCCUU [Mat - Exclusion 4 - Mod of JL - D49] (puzzle: Exclusion 4)”: under setting [1], the “apparent KD of MS2 coat protein” value worked out at 16.7 nM.

In the case of “UAACAAAUGGUCAGGAUAUCAUUCCCGGCCCAGAGUGAGAAGGGACAUGAGGAUCACCCAUGUGUGAUUCUCAU [jl-ex4-4.55 ViennaUCT mod] (Eterna round: R97, puzzle: Brourd's mod of Exclusion 4)”, the “apparent KD of MS2 coat protein” value is, setting by setting: (input ligand: FMN 200 uM) 128 nM; (input ligand: none) 97.1 nM.

As to “UAACAUGUAGAAGGAUAUCUGCACGAUUAGUGCAGAGAAGGUCUAACAUGAGGAUCACCCAUGUAGAUCAUUAAUUAAUUAAUU [ENG1/8-B1] (Eterna round: R96, puzzle: Exclusion NG 1)”, the “apparent KD of MS2 coat protein” value was 15.2 nM (input ligand: FMN 200 uM), 8.43 nM under setting [2] and 12.4 nM (input ligand: none).

As for “UAAGAUUACCGAGGAUAUGGUGGUUUCUAUUAACCAGAAGGCGGACUCAACAUGAGGAUCACCCAUGUAUAAAGGGUAUUAGAU [Ex NG1 #8] (Eterna round: R96, puzzle: Exclusion NG 1)”, the “apparent KD of MS2 coat protein” value runs as follows: (input ligand: FMN 200 uM) 134 nM; under setting [2], 112 nM; (input ligand: none) 144 nM.

On to “UAAGUGCUGCGAGGAUAUACAUGAGGAUCACCCAUGUGGAUGUCUGAGGCUUUGCCUCAGACGAUGUAGAAGGCGCAGUACAAU [Mat - Exclusion NG 2 - Mod of JL - D51] (Eterna round: R96, puzzle: Exclusion NG 2)”, for which the “apparent KD of MS2 coat protein” value was 77.3 nM (input ligand: FMN 200 uM), 11.1 nM under setting [2] and 20.6 nM (input ligand: none).

Turning to “UAAGUUUACCGAGGAUAUGGUUUUUCCUAUUAACCAGAAGGCGGACUCAACAUGAGGAUCACCCAUGUAUAAAGGGUAUUAGGU [JR_ExcNG1_Sub044] (Eterna round: R96, puzzle: Exclusion NG 1)”, the “apparent KD of MS2 coat protein” value came out at 88.5 nM (input ligand: FMN 200 uM), 68 nM under setting [2] and 74.2 nM (input ligand: none).

As for “UAAGUUUUGGUAGGAUAUACUUUAAAUUUCUCUAUCCAUACAUGAGGAUCACCCAUGUUUACAUUGUAGAAGGACCUUUAUGUU [JR_ExcNG2_Sub057] (Eterna round: R96, puzzle: Exclusion NG 2)”, the “apparent KD of MS2 coat protein” value under setting [2] was 30.2 nM.

For the sequence “UAAUAAAGUGUGAGGAUAUGCUGGUCCUUAGAUCAGCAGAAGGCACAUGAGGAUCACCCAUGUAAUAUAUAAAU [Mat - Exclusion 4 - JL Mod - D56] (Eterna round: R96, puzzle: Brourd's mod of Exclusion 4)”, the “apparent KD of MS2 coat protein” value under setting [2] stood at 29 nM.

“UAAUAAAGUGUGAGGAUAUGCUGGUCCUUAGAUCAGCAGAAGGCACAUGAGGAUCACCCAUGUAAUAUAUAAAU [Mat - Exclusion 4 - JL Mod - D56] (puzzle: Brourd's mod of Exclusion 4)”: the “apparent KD of MS2 coat protein” value runs as follows: under setting [3], 245 nM; under setting [1], 22.8 nM; under setting [4], 30.3 nM.
